This note sets out measurements from US20240108738A1 (Bicycle, published 2024).

The target of test [1] is T1, Human NKp46 Fc tag (Acro Biosystems, NC1-H5257) (human, UniProt O76036 22-255).
T1 construct: bought; also called Fc-tagged human NKp46
In words: SPR Method 1 and/or 2. The method, boiled down:
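Fc-tagged human NKp46 captured on anti-human IgG surface (500–1000 RU); compounds run in PBS-P+ with 2% DMSO at 25 °C, 50 μL/min, 60 s association, 400 s dissociation. Double-referenced, DMSO-corrected; KD from steady-state 1:1 fit, kinetic constants from kinetic 1:1 fit where appropriate.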

Test [2] has as its target T2, Human NKp46 His tag (Acro Biosystems, NC1-H52H4) (human, UniProt O76036 22-255).
T2 construct: bought; also called human NKp46-his tagged protein
In words: FP competition vs BCY15035. On the procedure: The untagged competitor peptides were diluted in assay buffer 25 mM HEPES, 100 mM NaCl, 0.01% P20, pH 7.4. to a top concentration of 5000 nM and diluted 2-fold in 11 steps. The human NKp46-his tagged protein (AcroBiosystems) was diluted to 40 nM final concentration in the assay. […] The total volume of 25 μL was prepared in black walled and flat-bottomed low binding low volume 384 well plates. Measurements were performed using Envision (PerkinElmer) equipped with the excitation filter FITC FP 480, emission filter FITC FP P-pol 535 and 2nd emission filter FITC FP S-pol 535 and set to 30 flashes. The gain was set in a well containing tracer alone without target protein.

Numbered stars: 1 amine (or outer) side, 2 acyl side, 3 side chain; on linkers, the order of the positions; unused ones are H or OH. Bridge positions count the residues as written; N and C are the ends. Square brackets hold non-standard residues; d marks the D form. Ends that are not written are not given here. 4MeOPhe = 4-methoxy-phenylalanine, COc1ccc(C[C@H](N[*:1])C(=O)[*:2])cc1; TATA = O=C(CC[*:1])N1CN(C(=O)CC[*:2])CN(C(=O)CC[*:3])C1; Phe(4-CF3) = N[C@@H](Cc1ccc(C(F)(F)F)cc1)C(=O)O; Phe(4-CONH2) = NC(=O)c1ccc(C[C@H](N)C(=O)O)cc1; Phe(4-CN) = N#Cc1ccc(C[C@H](N)C(=O)O)cc1; Phe(4-Cl) = N[C@@H](Cc1ccc(Cl)cc1)C(=O)O; Phe(4-F) = N[C@@H](Cc1ccc(F)cc1)C(=O)O; Ala(cPent) = N[C@@H](CC1CCCC1)C(=O)O; Cba = N[C@@H](CC1CCC1)C(=O)O

T2 sequence (O76036 22-255 limits assumed): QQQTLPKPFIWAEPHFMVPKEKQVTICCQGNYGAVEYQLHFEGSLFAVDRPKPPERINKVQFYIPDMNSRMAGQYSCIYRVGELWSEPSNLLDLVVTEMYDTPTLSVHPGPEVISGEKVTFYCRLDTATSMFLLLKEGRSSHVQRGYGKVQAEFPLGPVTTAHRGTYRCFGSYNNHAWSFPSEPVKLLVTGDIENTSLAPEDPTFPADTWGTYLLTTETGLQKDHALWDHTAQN
T1 sequence (O76036 22-255 limits assumed): as above

By Kd is commonly meant the free concentration of one partner at which half of the binding sites on the other are occupied at equilibrium, for simple one-to-one binding. As usually defined, the Ki is the dissociation constant of the complex between target and ligand, obtained from inhibition or displacement. High values mean weaker binding, low ones tighter binding. In test [1], Ac-CY[Cba]PDYLC[dA]DEYC-NH2 (linker 1-8-13 via TATA, scaffold TATA) [BCY16133] had a Kd of 0.0049 µM. Moreover, the affinity in test [2] corresponds to a Ki of 0.01 µM.
Turning to ACYLPDWLCGDEYCA-NH2 (linker 2-9-14 via TATA; also: scaffold TATA, TATB or TBMT, scaffold TATA) [BCY14455], in test [1], the Kd turned out to be 0.23 µM. In test [2], this molecule displayed a Ki of 0.282 µM.
The matching figures for ACYLPAYLCGDEYCA-NH2 (linker 2-9-14 via TATA; also: cyclised with TATA, TATB or TBMT, scaffold TATA) [BCY15656]: 0.034 µM and 0.039 µM.

B1: BCY15650 (peptide)
peptide: ACYLPDYLC[dA]DEYCA-NH2
modifications: linker 2-9-14 via TATA; N-terminus assumed
SMILES: CC(C)C[C@@H]1NC(=O)[C@H](Cc2ccc(O)cc2)NC(=O)[C@H](CC(=O)O)NC(=O)[C@@H]2CCCN2C(=O)[C@H](CC(C)C)NC(=O)[C@H](Cc2ccc(O)cc2)NC(=O)[C@@H](NC(=O)[C@H](C)N)CSCCC(=O)N2CN3CN(C2)C(=O)CCSC[C@H](NC1=O)C(=O)N[C@H](C)C(=O)N[C@@H](CC(=O)O)C(=O)N[C@@H](CCC(=O)O)C(=O)N[C@@H](Cc1ccc(O)cc1)C(=O)N[C@H](C(=O)N[C@@H](C)C(N)=O)CSCCC3=O
notes: scaffold TATA
The molecule B1 gave a Kd in test [1] of 0.01 µM. For the same molecule, affinity in test [2] was put at a Ki of 0.016 µM.

B2: BCY16142 (peptide)
peptide: ACYLPD[Phe(4-CF3)]LCGDEYCA-NH2
modifications: linker 2-9-14 via TATA; N-terminus assumed
SMILES: CC(C)C[C@@H]1NC(=O)[C@H](Cc2ccc(C(F)(F)F)cc2)NC(=O)[C@H](CC(=O)O)NC(=O)[C@@H]2CCCN2C(=O)[C@H](CC(C)C)NC(=O)[C@H](Cc2ccc(O)cc2)NC(=O)[C@@H](NC(=O)[C@H](C)N)CSCCC(=O)N2CN3CN(C2)C(=O)CCSC[C@@H](C(=O)N[C@@H](C)C(N)=O)NC(=O)[C@H](Cc2ccc(O)cc2)NC(=O)[C@H](CCC(=O)O)NC(=O)[C@H](CC(=O)O)NC(=O)CNC(=O)[C@H](CSCCC3=O)NC1=O
notes: scaffold TATA
For B2, affinity in test [2] was put at a Ki of 0.317 µM.

B3: BCY16132 (peptide)
peptide: ACY[Cba]PDYLC[dA]DEYCA-NH2
modifications: linker 2-9-14 via TATA; N-terminus assumed
SMILES: CC(C)C[C@@H]1NC(=O)[C@H](Cc2ccc(O)cc2)NC(=O)[C@H](CC(=O)O)NC(=O)[C@@H]2CCCN2C(=O)[C@H](CC2CCC2)NC(=O)[C@H](Cc2ccc(O)cc2)NC(=O)[C@@H](NC(=O)[C@H](C)N)CSCCC(=O)N2CN3CN(C2)C(=O)CCSC[C@H](NC1=O)C(=O)N[C@H](C)C(=O)N[C@@H](CC(=O)O)C(=O)N[C@@H](CCC(=O)O)C(=O)N[C@@H](Cc1ccc(O)cc1)C(=O)N[C@H](C(=O)N[C@@H](C)C(N)=O)CSCCC3=O
notes: scaffold TATA
Molecule B3 yielded an equilibrium dissociation constant (Kd) in test [1] of 0.0039 µM. In addition, the inhibitory constant (Ki) in test [2] is 0.008 µM.
In the case of ACYLPDW[Cba]CGDEYCA-NH2 (linker 2-9-14 via TATA, scaffold TATA) [BCY15649], the affinity in test [2], expressed as Ki, was 0.391 µM.

B4: BCY15639 (peptide)
peptide: ACY[Cba]PDYLCGDEYCA-NH2
modifications: linker 2-9-14 via TATA; N-terminus assumed
SMILES: CC(C)C[C@@H]1NC(=O)[C@H](Cc2ccc(O)cc2)NC(=O)[C@H](CC(=O)O)NC(=O)[C@@H]2CCCN2C(=O)[C@H](CC2CCC2)NC(=O)[C@H](Cc2ccc(O)cc2)NC(=O)[C@@H](NC(=O)[C@H](C)N)CSCCC(=O)N2CN3CN(C2)C(=O)CCSC[C@@H](C(=O)N[C@@H](C)C(N)=O)NC(=O)[C@H](Cc2ccc(O)cc2)NC(=O)[C@H](CCC(=O)O)NC(=O)[C@H](CC(=O)O)NC(=O)CNC(=O)[C@H](CSCCC3=O)NC1=O
notes: scaffold TATA
B4: in test [1], binding was put at a Kd of 0.011 µM. The Ki in test [2] was found to be 0.017 µM.

B5: BCY16140 (peptide)
peptide: ACYLPD[Phe(4-CONH2)]LCGDEYCA-NH2
modifications: linker 2-9-14 via TATA; N-terminus assumed
SMILES: CC(C)C[C@@H]1NC(=O)[C@H](Cc2ccc(C(N)=O)cc2)NC(=O)[C@H](CC(=O)O)NC(=O)[C@@H]2CCCN2C(=O)[C@H](CC(C)C)NC(=O)[C@H](Cc2ccc(O)cc2)NC(=O)[C@@H](NC(=O)[C@H](C)N)CSCCC(=O)N2CN3CN(C2)C(=O)CCSC[C@@H](C(=O)N[C@@H](C)C(N)=O)NC(=O)[C@H](Cc2ccc(O)cc2)NC(=O)[C@H](CCC(=O)O)NC(=O)[C@H](CC(=O)O)NC(=O)CNC(=O)[C@H](CSCCC3=O)NC1=O
notes: scaffold TATA
Molecule B5 showed a Ki in test [2] of 0.122 µM.

B6: BCY16143 (peptide)
peptide: ACYLPD[Phe(4-CN)]LCGDEYCA-NH2
modifications: linker 2-9-14 via TATA; N-terminus assumed
SMILES: CC(C)C[C@@H]1NC(=O)[C@H](Cc2ccc(C#N)cc2)NC(=O)[C@H](CC(=O)O)NC(=O)[C@@H]2CCCN2C(=O)[C@H](CC(C)C)NC(=O)[C@H](Cc2ccc(O)cc2)NC(=O)[C@@H](NC(=O)[C@H](C)N)CSCCC(=O)N2CN3CN(C2)C(=O)CCSC[C@@H](C(=O)N[C@@H](C)C(N)=O)NC(=O)[C@H](Cc2ccc(O)cc2)NC(=O)[C@H](CCC(=O)O)NC(=O)[C@H](CC(=O)O)NC(=O)CNC(=O)[C@H](CSCCC3=O)NC1=O
notes: scaffold TATA
With B6, the Ki in test [2] is 0.464 µM.

B7: BCY16134 (peptide)
peptide: [dA]CYLPDYLCGDEYC-NH2
modifications: linker 2-9-14 via TATA; N-terminus assumed
SMILES: CC(C)C[C@@H]1NC(=O)[C@H](Cc2ccc(O)cc2)NC(=O)[C@H](CC(=O)O)NC(=O)[C@@H]2CCCN2C(=O)[C@H](CC(C)C)NC(=O)[C@H](Cc2ccc(O)cc2)NC(=O)[C@@H](NC(=O)[C@@H](C)N)CSCCC(=O)N2CN3CN(C2)C(=O)CCSC[C@H](NC1=O)C(=O)NCC(=O)N[C@@H](CC(=O)O)C(=O)N[C@@H](CCC(=O)O)C(=O)N[C@@H](Cc1ccc(O)cc1)C(=O)N[C@H](C(N)=O)CSCCC3=O
notes: scaffold TATA
Turning to B7, in test [2], the inhibition constant Ki turned out to be 0.077 µM.

B8: BCY16144 (peptide)
peptide: ACYLPD[Phe(4-Cl)]LCGDEYCA-NH2
modifications: linker 2-9-14 via TATA; N-terminus assumed
SMILES: CC(C)C[C@@H]1NC(=O)[C@H](Cc2ccc(Cl)cc2)NC(=O)[C@H](CC(=O)O)NC(=O)[C@@H]2CCCN2C(=O)[C@H](CC(C)C)NC(=O)[C@H](Cc2ccc(O)cc2)NC(=O)[C@@H](NC(=O)[C@H](C)N)CSCCC(=O)N2CN3CN(C2)C(=O)CCSC[C@@H](C(=O)N[C@@H](C)C(N)=O)NC(=O)[C@H](Cc2ccc(O)cc2)NC(=O)[C@H](CCC(=O)O)NC(=O)[C@H](CC(=O)O)NC(=O)CNC(=O)[C@H](CSCCC3=O)NC1=O
notes: scaffold TATA
Take B8: the inhibition constant (Ki) in test [2] worked out at 0.718 µM.

B9: BCY16135 (peptide)
peptide: ACYLPD[Phe(4-F)]LCGDEYCA-NH2
modifications: linker 2-9-14 via TATA; N-terminus assumed
SMILES: CC(C)C[C@@H]1NC(=O)[C@H](Cc2ccc(F)cc2)NC(=O)[C@H](CC(=O)O)NC(=O)[C@@H]2CCCN2C(=O)[C@H](CC(C)C)NC(=O)[C@H](Cc2ccc(O)cc2)NC(=O)[C@@H](NC(=O)[C@H](C)N)CSCCC(=O)N2CN3CN(C2)C(=O)CCSC[C@@H](C(=O)N[C@@H](C)C(N)=O)NC(=O)[C@H](Cc2ccc(O)cc2)NC(=O)[C@H](CCC(=O)O)NC(=O)[C@H](CC(=O)O)NC(=O)CNC(=O)[C@H](CSCCC3=O)NC1=O
notes: scaffold TATA
B9 yielded a Ki in test [2] of 0.639 µM.
In test [2], ACY[Ala(cPent)]PDYLCGDEYCA-NH2 (linker 2-9-14 via TATA, scaffold TATA) [BCY16130] displayed an inhibitory constant (Ki) of 0.321 µM.

B10: BCY16136 (peptide)
peptide: ACYLPD[4MeOPhe]LCGDEYCA-NH2
modifications: linker 2-9-14 via TATA; N-terminus assumed
SMILES: COc1ccc(C[C@@H]2NC(=O)[C@H](CC(=O)O)NC(=O)[C@@H]3CCCN3C(=O)[C@H](CC(C)C)NC(=O)[C@H](Cc3ccc(O)cc3)NC(=O)[C@@H](NC(=O)[C@H](C)N)CSCCC(=O)N3CN4CN(C3)C(=O)CCSC[C@@H](C(=O)N[C@@H](C)C(N)=O)NC(=O)[C@H](Cc3ccc(O)cc3)NC(=O)[C@H](CCC(=O)O)NC(=O)[C@H](CC(=O)O)NC(=O)CNC(=O)[C@H](CSCCC4=O)NC(=O)[C@H](CC(C)C)NC2=O)cc1
notes: scaffold TATA
Molecule B10 showed an inhibitory constant (Ki) in test [2] of 0.269 µM.
